From paper PMC2615086 (The Journal of Cell Biology, 2009)

Molecular target: T1, Fic1-His6 (S. pombe, UniProt O94701 1-272)
T1 sequence: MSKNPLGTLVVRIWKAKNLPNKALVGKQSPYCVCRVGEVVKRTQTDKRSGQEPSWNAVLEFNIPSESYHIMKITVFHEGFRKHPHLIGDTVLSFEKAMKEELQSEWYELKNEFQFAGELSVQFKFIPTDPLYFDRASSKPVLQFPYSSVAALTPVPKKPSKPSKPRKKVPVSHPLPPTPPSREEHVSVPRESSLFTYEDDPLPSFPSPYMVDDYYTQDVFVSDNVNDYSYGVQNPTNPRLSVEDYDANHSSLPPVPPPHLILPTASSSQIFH
Assay: quantitative in vitro binding

B1: MBP-Cdc15SH3 (domain or fragment)
chain: SSMSLYGEYNKSQPQLSMQRSVSPNPLGPNRRSSSVLQSQKSTSSNTSNRNNGGYSGSRPSSEMGHRYGSMSGRSMRQVSQRSTSRARSPEPTNRNSVQSKNVDPRATFTAEGEPILGYVIALYDYQAQIPEEISFQKGDTLMVLRTQEDGWWDGEIINVPNSKRGLFPSNFVQTV
Binder B1 has a Kd of roughly 3000 nM.
